From patent publication US20240067748A1 (NONA BIOSCIENCES SUZHOU, published 2024)
Positions count from the first letter of the chain named.

Experiments:
[1] = target: T1, human Trop2 on cells (human, UniProt P09758 27-323); test: cell-based or functional assay
T1 sequence (looked up): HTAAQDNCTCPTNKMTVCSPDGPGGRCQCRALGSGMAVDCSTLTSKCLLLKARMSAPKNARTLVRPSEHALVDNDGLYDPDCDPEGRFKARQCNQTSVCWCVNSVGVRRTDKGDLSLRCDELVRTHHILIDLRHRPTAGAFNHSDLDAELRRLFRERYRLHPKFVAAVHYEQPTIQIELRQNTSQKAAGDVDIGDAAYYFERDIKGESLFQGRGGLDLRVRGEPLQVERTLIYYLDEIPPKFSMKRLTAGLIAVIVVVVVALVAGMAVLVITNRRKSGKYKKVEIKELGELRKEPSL

[2] = target: T1, human Trop2 on cells; test: cell-based or functional assay; remark: listed apart in the source
[3] = target: T2, monkey Trop2 protein (Sino Biological, #90893-C08H) (monkey, UniProt A0A2K5UE71 27-274); test: BLI, Octet RED96; ratio against KD for human Trop2 protein
T2 construct: bought protein; also called monkey Trop2 protein antigen (His tag)
T2 sequence: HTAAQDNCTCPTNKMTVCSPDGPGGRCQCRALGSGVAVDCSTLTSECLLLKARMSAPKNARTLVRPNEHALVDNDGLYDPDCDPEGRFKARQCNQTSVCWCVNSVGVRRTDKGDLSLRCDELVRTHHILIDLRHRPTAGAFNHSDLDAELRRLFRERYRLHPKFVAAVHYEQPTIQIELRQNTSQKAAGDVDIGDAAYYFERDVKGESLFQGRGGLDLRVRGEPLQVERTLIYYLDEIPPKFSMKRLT
Method: Specifically, a human TROP2 protein (Sino Biological, #10428-H08H) or a monkey Trop2 protein (Sino Biological, #90893-C08H) was diluted to 200 nM with a PBS buffer (pH 7.4) containing 0.1% (w/w) BSA and 0.02% (v/v) tween 20, and incubated with the AHC sensor respectively. 40 nM Trop2 antibody was incubated at 30° C. for 3 min with the AHC sensor loaded with the human Trop2 protein or monkey Trop2 protein respectively. The reaction mixture was incubated at 30° C. for another 5 min in a PBS buffer (pH 7.4) containing 0.1% (v/w) BSA and 0.02% (v/v) Tween 20. The association and dissociation signals between the Trop2 antibody and the human Trop2 protein or monkey Trop2 protein were recorded by Octet Red 96 in real time. The affinity and the association and dissociation constants were determined by Octet using software.

[4] = target: T3, human TROP2 protein (Sino Biological, #10428-H08H) (human, UniProt P09758 27-274); test: BLI epitope binning (Octet), biotinylated human Trop2 on SA sensor; row = primary antibody; competitor (secondary antibody, column): PR001142
T3 construct: bought protein; also called human Trop2 protein antigen (His tag); not shown: His tag
T3 sequence (looked up): T2 sequence with V36M, E46K, N67S, V204I
Method: (§1) The biotinylated mixture after the incubation was washed three times with PBS and a Zeba centrifugal desalting column (Thermo Fisher, #89882) to remove excess biotin. The biotinylated Trop2 protein was captured by an SA sensor (Pall ForteBio, #18-5019) with the loading baseline set at 0.3 nm. The sensor was immersed in a well of assay buffer containing 50 nM primary antibody for 300 s. […] The binding assay was performed by comparing the binding of the secondary antibody to Trop2 in the presence of the primary antibody to the blocking of the primary antibody itself.

[5] = target: T3, human TROP2 protein (Sino Biological, …); test: BLI epitope binning (Octet), biotinylated human Trop2 on SA sensor; row = primary antibody; competitor (secondary antibody, column): PR001165
Method: as §1

[6] = target: T3, human TROP2 protein (Sino Biological, …); test: BLI epitope binning (Octet), biotinylated human Trop2 on SA sensor; row = primary antibody; competitor (secondary antibody, column): PR001166
Method: as §1

[7] = target: T1, human Trop2 on cells; test: flow cytometry on BxPC-3 tumor cells (second panel of the table)
Method: BxPC-3 tumor cells (the Cell Bank of the Chinese Academy of Sciences, #TCHu 12) were digested with 3 mL of TrypLE, and the digestion was stopped with 7 mL of the corresponding medium. […] The cell solution was centrifuged, and the cells were washed once with PBS+[…] buffer. […] The cells were washed once with PBS+0.50% BSA. The cells were incubated at 4° C. for 1 h in the dark with 100 μL of Alexa Fluor 488 goat anti-human IgG (Life technologies, #A-11013) diluted at 1:1000, and washed twice with PBS+0.50% BSA. The cells were resuspended in 200 μL of PBS+0.50% BSA. The suspension was centrifuged at 4° C. for 5 min at 2000 rpm and tested using a FACS verse flow cytometer or NovoCyte flow cytometer (ACEA Biosciences). All procedures were performed on ice.

B1: PR001142 (antibody, human IgG1, kappa, V domains shown)
VH: QVQLQESGPGLVKPSGTLSLTCAVSGDSISSNNWWSWVRQPPGKGLEWIGEIYPGGNPNYNPSLKSRVTISVDKSKNQFSLKLNSVTAADTAVYYCARGSGVISYFDYWGQGTLVTVSS
VL: DIQMTQSPSTLSASVGDRVTITCRASQSIGHWLAWYQQKPGKAPKLLIYKASSLESGVPSRFRGSGSGTEFTLTISSLQPDDFATYYCQQYSSYSPITFGQGSRLEIKR
notes: fully human IgG1/kappa; also called antibody No. (9)
ADCC (donor 1152#) EC50(nM), BxPC-3 + PBMC, LDH release [1]: 0.0279 nM | ADCC (donor 1152#) Maximum cell killing % [1]: 41.6% | ADCC (donor 1152#) Minimum cell killing % [1]: 4.47% | ADCC (donor 2153#) EC50(nM), BxPC-3 + PBMC, LDH release [1]: 0.0547 nM | ADCC (donor 2153#) Maximum cell killing % [1]: 58.8% | ADCC (donor 2153#) Minimum cell killing % [1]: 9.28% | ADCP (Donor A1925144#) EC50(nM), BxPC-3 + macrophages [2]: 0.0362 nM | ADCP (Donor A1925144#) Maximum phagocytosis % [2]: 12% | ADCP (Donor A1925144#) Minimum phagocytosis % [2]: 0.861% | ADCP (Donor A19143143#) EC50(nM), BxPC-3 + macrophages [2]: 0.199 nM | ADCP (Donor A19143143#) Maximum phagocytosis % [2]: 36.4% | ADCP (Donor A19143143#) Minimum phagocytosis % [2]: 1.75% | KD (monkey)/KD (human) [3]: 0.81 | Inhibition rate (%) [4]: 101% | Inhibition rate (%) [5]: 99.2% | Inhibition rate (%) [6]: 85.5%

B2: PR001165 (antibody, human IgG1, kappa, V domains shown)
VH: QVQLVESGGGVVQPGRSLRLSCEASGFTFSHYGMHWVRQAPGKGLEWVAVIWYDGIKTYYVESVKGRFTISRDNSKNTLNLQMNRLRAEDTAVYYCARDGGFGESNYYGLDVWGQGTTVTVSS
VL: DIQLTQSPSFLSASVGDRVTITCRASQGISSYLGWYQQKPGKAPKLLIYIASTLQSGVPSRFSGSGSGTEFTLTISSLQPEDFATYYCQQLNSYPYTFGQGTKLEIKR
notes: fully human IgG1/kappa; also called antibody No. (26)
ADCC (donor 1152#) EC50(nM), BxPC-3 + PBMC, LDH release [1]: 0.0324 nM | ADCC (donor 1152#) Maximum cell killing % [1]: 39% | ADCC (donor 1152#) Minimum cell killing % [1]: 5.79% | ADCC (donor 2153#) EC50(nM), BxPC-3 + PBMC, LDH release [1]: 0.0616 nM | ADCC (donor 2153#) Maximum cell killing % [1]: 70.8% | ADCC (donor 2153#) Minimum cell killing % [1]: 14% | ADCP (Donor A1925144#) EC50(nM), BxPC-3 + macrophages [2]: 0.0683 nM | ADCP (Donor A1925144#) Maximum phagocytosis % [2]: 12.5% | ADCP (Donor A1925144#) Minimum phagocytosis % [2]: 2.25% | ADCP (Donor A19143143#) EC50(nM), BxPC-3 + macrophages [2]: 0.178 nM | ADCP (Donor A19143143#) Maximum phagocytosis % [2]: 42.7% | ADCP (Donor A19143143#) Minimum phagocytosis % [2]: 1.37% | EC50 [7]: 1.71 nM | Inhibition rate (%) [4]: 98.1% | Inhibition rate (%) [5]: 97.7% | Inhibition rate (%) [6]: 5.24%

B3: PR001166 (antibody, human IgG1, kappa, V domains shown)
VH: QVQLQESGPGLVKPSETLSLTCAVSGYSISSGYFWAWIRQPPGKGLEWIGSIYHSGRTHYNPSLKSRVIISLDTSKNQFSLKLRSVTAADSAVYYCAREGYASGSYYWGQGTLVTVSS
VL: EIVMTQSPATLSVSPGERATLSCRSSQSVNNYLAWFQQKPGQAPRLLIYDSSTRATGIPARFSGSGSGTEFTLTISSLQSEDFAFYFCQQYENWPLTFGGGTKVEIKR
notes: fully human IgG1/kappa; also called antibody No. (27)
ADCC (donor 1152#) EC50(nM), BxPC-3 + PBMC, LDH release [1]: 0.02 nM | ADCC (donor 1152#) Maximum cell killing % [1]: 36.5% | ADCC (donor 1152#) Minimum cell killing % [1]: 3.25% | ADCC (donor 2153#) EC50(nM), BxPC-3 + PBMC, LDH release [1]: 0.0347 nM | ADCC (donor 2153#) Maximum cell killing % [1]: 69.1% | ADCC (donor 2153#) Minimum cell killing % [1]: 11.9% | ADCP (Donor A1925144#) EC50(nM), BxPC-3 + macrophages [2]: 0.0311 nM | ADCP (Donor A1925144#) Maximum phagocytosis % [2]: 9.33% | ADCP (Donor A1925144#) Minimum phagocytosis % [2]: 2.05% | ADCP (Donor A19143143#) EC50(nM), BxPC-3 + macrophages [2]: 0.161 nM | ADCP (Donor A19143143#) Maximum phagocytosis % [2]: 40.2% | ADCP (Donor A19143143#) Minimum phagocytosis % [2]: 2.04% | Inhibition rate (%) [4]: 85.4% | Inhibition rate (%) [5]: 18.5% | Inhibition rate (%) [6]: 102%

B4: comparative example 2 antibody Tab (hRS7) (antibody, human IgG1, kappa, V domains shown)
VH: QVQLQQSGSELKKPGASVKVSCKASGYTFTNYGMNWVKQAPGQGLKWMGWINTYTGEPTYTDDFKGRFAFSLDTSVSTAYLQISSLKADDTAVYFCARGGFGSSYWYFDVWGQGSLVTVSS
VL: DIQLTQSPSSLSASVGDRVSITCKASQDVSIAVAWYQQKPGKAPKLLIYSASYRYTGVPDRFSGSGSGTDFTLTISSLQPEDFAVYYCQQHYITPLTFGAGTKVEIKR
notes: prepared on the basis of sacituzumab govitecan (ChemPartner, #T07-001); naked antibody
ADCC (donor 1152#) EC50(nM), BxPC-3 + PBMC, LDH release [1]: 0.0391 nM | ADCC (donor 1152#) Maximum cell killing % [1]: 42.1% | ADCC (donor 1152#) Minimum cell killing % [1]: 4.32% | ADCC (donor 2153#) EC50(nM), BxPC-3 + PBMC, LDH release [1]: 0.08 nM | ADCC (donor 2153#) Maximum cell killing % [1]: 62.6% | ADCC (donor 2153#) Minimum cell killing % [1]: 10.2% | ADCP (Donor A1925144#) EC50(nM), BxPC-3 + macrophages [2]: 0.125 nM | ADCP (Donor A1925144#) Maximum phagocytosis % [2]: 14.8% | ADCP (Donor A1925144#) Minimum phagocytosis % [2]: 1.72% | ADCP (Donor A19143143#) EC50(nM), BxPC-3 + macrophages [2]: 0.208 nM | ADCP (Donor A19143143#) Maximum phagocytosis % [2]: 44.8% | ADCP (Donor A19143143#) Minimum phagocytosis % [2]: 1.04% | EC50 [7]: 2.67 nM | Inhibition rate (%) [4]: 93.3% | Inhibition rate (%) [5]: 92% | Inhibition rate (%) [6]: 7.34%

B5: PR001139 (antibody, human IgG1, kappa, V domains shown)
VH: QVQLVESGGGVVQPGRSLRLSCAASGFTFSSFGMQWVRQGPGKGLEWVAVMWFDGSNKYYVDSVKGRFTISRDNSKNTLYLQMNSLRAEDTAVYYCARLDFSGWPLIDYWGQGTLVTVSS
VL: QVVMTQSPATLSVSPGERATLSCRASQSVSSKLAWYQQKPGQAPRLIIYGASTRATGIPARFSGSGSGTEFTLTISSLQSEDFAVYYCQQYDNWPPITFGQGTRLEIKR
notes: fully human IgG1/kappa; also called antibody No. (8)
KD (monkey)/KD (human) [3]: 1.62

B6: PR001133 (antibody, human IgG1, kappa, V domains shown)
VH: QVNLVESGGGVVQPGRSLKLSCAASGFTFSSYGMHWVRQAPGKGLEWVALIWSDGTNRYYTESVKGRFTISRDNSKNTLSLQMKSLRAEDTAVYYCAKDGWGTYGEYFQHWGQGTLVTVSS
VL: DIQMTQSPSSLSASVGDRVTITCRASQNINSYLHWYQQKPGKAPKLLIYAASSLQSGVPSRFSGSGSGTDFTLTISSLQPEDFAIYYCQQSYSIPPITFGQGTRLEIKR
notes: fully human IgG1/kappa; also called antibody No. (5)
KD (monkey)/KD (human) [3]: 2.27

B7: PR001162 (antibody, human IgG1, kappa, V domains shown)
VH: QVQLVESGGGVVQPGTSLRLSCVASGFTFSNDGMHWVRQAPGMGLEWVAIMWFDGGSKYYADSVKGRFTISRDNSKNTLYLQMNNLRAEDTAVYYCARDHPHYLGSGSFDYWGQGTLVTVSS
VL: EIVLTQSPATLSLSPGERATLSCRASQSVSSYLAWYQQKPGQAPRLLIYDASNRATGIPARFSGSGSGTDFTLTISSLQAEDVAVYYCQQYYSTPYTFGQGTKLEIKR
notes: fully human IgG1/kappa; also called antibody No. (23)
KD (monkey)/KD (human) [3]: 2.16
